Data on 1 substance can be found in article PMC12713436.

Experiment [1] addresses secretory immunoglobulin A1 (sIgA1) from human colostrum (human (endogenous in colostrum)) (UniProt P01591). The experiment in a line: BLI; Octet RED96; sIgA1 immobilised on AR2G biosensors via amine coupling, FTL as analyte; 25 °C; PBS with 0.02% Tween-20; global fit, 1:2 bivalent analyte model. Background: Biolayer interferometry detects binding as a change in optical thickness at a sensor tip.

For experiment [2] the target is unchanged. The experiment can be described thus: dynamic light scattering; sIgA1 titrated with FTL (0.06–1.94 mg/mL); Z-average diameter against FTL:sIgA1 molar ratio; Hill fit; apparent KD.
For experiment [3] the target is unchanged.
In experiment [4] the target is frutalin (FTL), galactose-specific jacalin-related lectin from Artocarpus altilis (syn. Artocarpus incisa) seeds (Artocarpus altilis (syn. Artocarpus incisa)). The experiment in a line: SEC; FTL alone on a Superdex column equilibrated in PBS + 50 mM D-galactose; single peak at Ve = 15.57 mL; apparent mass from calibration; oligomer of alpha-beta protomers. (In general: In gel filtration, larger molecules generally elute earlier.)

Usually koff stands for a measure of how fast the partners let go of each other. Lower therefore signals a long-lived complex. By kon is commonly meant the rate constant with which the complex forms. Lower therefore signals slower complex formation. Broadly, the stoichiometry N is the number of molecules, sites or subunits per partner or assembly.

Take “frutalin (FTL), galactose-specific jacalin-related lectin from Artocarpus altilis (syn. Artocarpus incisa) seeds (natural protein)”: in experiment [1], the koff amounted to 0.00214 s⁻¹ and the kon worked out at 596000 M⁻¹ s⁻¹. In addition, the stoichiometry N in experiment [2] is 1 to 1.5 FTL:sIgA1. The substance also had a hemagglutination titer (rabbit erythrocytes) of the preformed FTL–sIgA1 complex at 1 mg/mL, with 0 to 200 mM D-galactose (∼2^8 at 200 mM); free FTL ∼2^17 (∼2^9 at 200 mM galactose); sIgA1 alone ∼2^4 in experiment [3] of 65500 HU. Also, the stoichiometry N in experiment [4] amounted to 2.
